For the assay, the target named is OleTPRN, CYP152 decarboxylase from Rothia nassimurium forming terminal (poly-unsaturated) olefins, wild type (Rothia nassimurium). Nature of the assay: SEC. On the technique in general: In gel filtration, larger molecules generally elute earlier.

The term stoichiometry N denotes the number of molecules, sites or subunits per partner or assembly. As to “OleTPRN, CYP152 decarboxylase from Rothia nassimurium forming terminal (poly-unsaturated) olefins, wild type (enzyme)”, the stoichiometry N came out at 2.

These data come from article PMC10235961.
